T1: EsCas13d, nuclease-dead (Eubacterium siraeum, UniProt B0MS50, R295A;H300A;R849A;H854A)
T1 sequence: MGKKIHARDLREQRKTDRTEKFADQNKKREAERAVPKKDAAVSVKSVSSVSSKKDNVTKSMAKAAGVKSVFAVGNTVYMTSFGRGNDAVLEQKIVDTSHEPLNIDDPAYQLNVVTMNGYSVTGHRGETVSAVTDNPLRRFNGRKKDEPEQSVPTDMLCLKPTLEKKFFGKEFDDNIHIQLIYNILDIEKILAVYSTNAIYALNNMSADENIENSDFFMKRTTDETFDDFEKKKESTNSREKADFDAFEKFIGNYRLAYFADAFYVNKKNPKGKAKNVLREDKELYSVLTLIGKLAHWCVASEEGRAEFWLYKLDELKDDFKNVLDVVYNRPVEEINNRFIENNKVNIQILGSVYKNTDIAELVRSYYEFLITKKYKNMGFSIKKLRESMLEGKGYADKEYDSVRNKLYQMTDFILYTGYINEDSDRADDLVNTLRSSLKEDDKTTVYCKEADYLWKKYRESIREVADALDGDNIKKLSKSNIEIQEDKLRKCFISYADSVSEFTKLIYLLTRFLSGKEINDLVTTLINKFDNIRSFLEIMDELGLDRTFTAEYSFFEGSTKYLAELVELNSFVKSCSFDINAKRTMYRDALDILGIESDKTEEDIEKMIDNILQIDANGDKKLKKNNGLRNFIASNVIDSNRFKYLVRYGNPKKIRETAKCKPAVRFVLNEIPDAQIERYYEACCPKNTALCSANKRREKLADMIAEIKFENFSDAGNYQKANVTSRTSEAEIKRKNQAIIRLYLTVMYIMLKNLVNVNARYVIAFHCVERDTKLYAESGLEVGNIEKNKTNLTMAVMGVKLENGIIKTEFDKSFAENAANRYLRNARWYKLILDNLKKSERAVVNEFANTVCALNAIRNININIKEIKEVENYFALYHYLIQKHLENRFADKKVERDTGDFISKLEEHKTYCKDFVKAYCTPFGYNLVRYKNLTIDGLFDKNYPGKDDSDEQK

B1: target 1 U3G,G5C (mixed)
RNA 1: CACCCGUGCAAAAAUGCAGGGGUCUAAAACUGAGCGGAUAACCUCUCUAUGG
RNA 2: GGGAAUGGAUCCACAUCUACGAAUUCGUACCAUAGAGAGGUUAUCCCCGCACCGAGAUCGGAAGAGCACACGU
B2: target 1 MT 5'PFS GGG 3'PFS UAU (mixed)
RNA 1: B1 RNA 1
RNA 2: B1 RNA 2 with U28G, A29G, C47G, G49U, C52U, C53A, G54U
B3: target 1 MT 5'PFS GCC 3'PFS UUG (mixed)
RNA 1: B1 RNA 1
RNA 2: B1 RNA 2 with U28C, A29C, C47G, G49U, C52U, C53U
B4: target 1 MT 5'PFS UAA 3'PFS AUC (mixed)
RNA 1: B1 RNA 1
RNA 2: B1 RNA 2 with G27U, U28A, C47G, G49U, C52A, C53U, G54C
B5: target 1 MT 5'PFS AGU 3'PFS ACG (mixed)
RNA 1: B1 RNA 1
RNA 2: B1 RNA 2 with G27A, U28G, A29U, C47G, G49U, C52A
B6: target 1 MT 5'PFS UCA 3'PFS CGU (mixed)
RNA 1: B1 RNA 1
RNA 2: B1 RNA 2 with G27U, U28C, C47G, G49U, C53G, G54U
B7: target 1 MT 5'PFS CCA 3'PFS UGA (mixed)
RNA 1: B1 RNA 1
RNA 2: B1 RNA 2 with G27C, U28C, C47G, G49U, C52U, C53G, G54A
B8: target 1 MT 5'PFS UGG 3'PFS CCG (mixed)
RNA 1: B1 RNA 1
RNA 2: B1 RNA 2 with G27U, U28G, A29G, C47G, G49U
B9: target 1 MT 5'PFS GUU 3'PFS AUU (mixed)
RNA 1: B1 RNA 1
RNA 2: B1 RNA 2 with A29U, C47G, G49U, C52A, C53U, G54U
B10: target 1 MT 5'PFS UAA 3'PFS UCC (mixed)
RNA 1: B1 RNA 1
RNA 2: B1 RNA 2 with G27U, U28A, C47G, G49U, C52U, G54C
B11: target 1 MT 5'PFS UCC 3'PFS UGU (mixed)
RNA 1: B1 RNA 1
RNA 2: B1 RNA 2 with G27U, U28C, A29C, C47G, G49U, C52U, C53G, G54U
B12: target 1 MT 5'PFS AGU 3'PFS ACU (mixed)
RNA 1: B1 RNA 1
RNA 2: B1 RNA 2 with G27A, U28G, A29U, C47G, G49U, C52A, G54U
B13: target 1 MT 5'PFS GCC 3'PFS CAG (mixed)
RNA 1: B1 RNA 1
RNA 2: B1 RNA 2 with U28C, A29C, C47G, G49U, C53A
B14: target 1 MT 5'PFS GGG 3'PFS UAC (mixed)
RNA 1: B1 RNA 1
RNA 2: B1 RNA 2 with U28G, A29G, C47G, G49U, C52U, C53A, G54C
B15: target 1 insA 3' of 19,insA 3' of 7 (mixed)
RNA 1: B1 RNA 1
RNA 2: GGGAAUGGAUCCACAUCUACGAAUUCGUACCAUAAGAGAGGUUAUCACGCUCACCGAGAUCGGAAGAGCACACGU
B16: target 1 MT 5'PFS UCA 3'PFS CGA (mixed)
RNA 1: B1 RNA 1
RNA 2: B1 RNA 2 with G27U, U28C, C47G, G49U, C53G, G54A
B17: target 1 MT 5'PFS AGU 3'PFS ACC (mixed)
RNA 1: B1 RNA 1
RNA 2: B1 RNA 2 with G27A, U28G, A29U, C47G, G49U, C52A, G54C
B18: target 1 MT 5'PFS GGC 3'PFS CAA (mixed)
RNA 1: B1 RNA 1
RNA 2: B1 RNA 2 with U28G, A29C, C47G, G49U, C53A, G54A
B19: target 1 MT 5'PFS GCC 3'PFS UUC (mixed)
RNA 1: B1 RNA 1
RNA 2: B1 RNA 2 with U28C, A29C, C47G, G49U, C52U, C53U, G54C
B20: target 1 MT 5'PFS GGC 3'PFS CAU (mixed)
RNA 1: B1 RNA 1
RNA 2: B1 RNA 2 with U28G, A29C, C47G, G49U, C53A, G54U
B21: target 1 MT 5'PFS CCA 3'PFS UGC (mixed)
RNA 1: B1 RNA 1
RNA 2: B1 RNA 2 with G27C, U28C, C47G, G49U, C52U, C53G, G54C
B22: target 1 MT 5'PFS AGU 3'PFS ACA (mixed)
RNA 1: B1 RNA 1
RNA 2: B1 RNA 2 with G27A, U28G, A29U, C47G, G49U, C52A, G54A
B23: target 1 MT 5'PFS UAA 3'PFS UCA (mixed)
RNA 1: B1 RNA 1
RNA 2: B1 RNA 2 with G27U, U28A, C47G, G49U, C52U, G54A
B24: target 1 MT 5'PFS GGA 3'PFS CUG (mixed)
RNA 1: B1 RNA 1
RNA 2: B1 RNA 2 with U28G, C47G, G49U, C53U
B25: target 1 insG 3' of 22,insG 3' of 6 (mixed)
RNA 1: B1 RNA 1
RNA 2: B15 RNA 2 with C31G, A32C, U33A, A34U, A47C, C48G
B26: target 1 MT 5'PFS GCC 3'PFS UUA (mixed)
RNA 1: B1 RNA 1
RNA 2: B1 RNA 2 with U28C, A29C, C47G, G49U, C52U, C53U, G54A
B27: target 1 MT 5'PFS UAG 3'PFS AGG (mixed)
RNA 1: B1 RNA 1
RNA 2: B1 RNA 2 with G27U, U28A, A29G, C47G, G49U, C52A, C53G
B28: target 1 MT 5'PFS GGG 3'PFS UAA (mixed)
RNA 1: B1 RNA 1
RNA 2: B1 RNA 2 with U28G, A29G, C47G, G49U, C52U, C53A, G54A
B29: target 1 C2G,U10G (mixed)
RNA 1: B1 RNA 1
RNA 2: B1 RNA 2 with U42G, C47G, G49U, C50G
B30: target 1 MT 5'PFS UAA 3'PFS AUG (mixed)
RNA 1: B1 RNA 1
RNA 2: B1 RNA 2 with G27U, U28A, C47G, G49U, C52A, C53U
B31: target 1 insU 3' of 14,insA 3' of 8 (mixed)
RNA 1: B1 RNA 1
RNA 2: B15 RNA 2 with A35G, G36A, A37G, G38A, A39U, C46A, A47C
B32: target 1 MT 5'PFS UAA 3'PFS UCU (mixed)
RNA 1: B1 RNA 1
RNA 2: B1 RNA 2 with G27U, U28A, C47G, G49U, C52U, G54U
B33: target 1 MT 5'PFS GGA 3'PFS CUU (mixed)
RNA 1: B1 RNA 1
RNA 2: B1 RNA 2 with U28G, C47G, G49U, C53U, G54U
B34: target 1 MT 5'PFS GCC 3'PFS UUU (mixed)
RNA 1: B1 RNA 1
RNA 2: B1 RNA 2 with U28C, A29C, C47G, G49U, C52U, C53U, G54U
B35: target 1 MT 5'PFS CUC 3'PFS UGC (mixed)
RNA 1: B1 RNA 1
RNA 2: B1 RNA 2 with G27C, A29C, C47G, G49U, C52U, C53G, G54C
B36: target 1 MT 5'PFS UAA 3'PFS AUA (mixed)
RNA 1: B1 RNA 1
RNA 2: B1 RNA 2 with G27U, U28A, C47G, G49U, C52A, C53U, G54A
B37: target 1 MT 5'PFS GGG 3'PFS UAG (mixed)
RNA 1: B1 RNA 1
RNA 2: B1 RNA 2 with U28G, A29G, C47G, G49U, C52U, C53A

Where a chain is given by its changes, count along the chain named. Names and notes keep the numbering of the source.

The data set addresses T1, EsCas13d, nuclease-dead. The data set can be described thus: crRNA (strand 1, pre-loaded); Mg2+; 40 mM Tris-HCl pH 7.5, 150 mM NaCl, 6 mM MgCl2, 1 mM DTT, 0.1% Tween-20, 0.2 mg/ml BSA; 25 C; 10 min per concentration, then washed. The settings on record: tags: His6-TwinStrep-SUMO cleaved; N-terminal SNAP kept (SNAP-Surface 488); label: 3' end held by stalled T7 RNA polymerase.
B1 registered a Kd of 16.7 ± 1.1 nM.

The molecule B2 came in with a dissociation constant Kd of 16.7 ± 3.25 nM.

In turn, B3 came in with a Kd of 8.2 ± 1.1 nM.

B4: binding was put at a Kd of 33 ± 10 nM.

In turn, B5 gave a Kd of 36 ± 10 nM.

Molecule B6 registered a Kd of 18.5 ± 6.5 nM.

B7 gave a dissociation constant Kd of 13 ± 4.5 nM.

In the case of B8, binding was put at a Kd of 47 ± 9.5 nM.

In turn, B9 showed a Kd of 13.9 ± 2.3 nM.

With B10, the Kd was found to be 82.5 ± 27.5 nM.

Take B11: the Kd is approximately 70 nM.

For B12, the affinity, expressed as Kd, was 38 ± 11 nM.

B13 came in with a Kd of 44 ± 21 nM.

Turning to B14, the affinity, expressed as Kd, was 16.8 ± 2.75 nM.

The molecule B15 returned a dissociation constant (Kd) of 15.2 ± 1.4 nM.

B16: the Kd was 12.2 ± 3.45 nM.

Molecule B17 came in with an equilibrium dissociation constant (Kd) of approximately 80 nM.

On to B18, for which the dissociation constant Kd is approximately 34 nM.

On to B19, for which binding was put at a Kd of 17 ± 5.5 nM.

Take B20: the Kd was found to be 15.7 ± 5.5 nM.

Regarding B21, the Kd was 3.55 ± 0.8 nM.

Molecule B22 showed a Kd of 65 ± 29 nM.

B23 yielded a dissociation constant Kd of 32 ± 9.5 nM.

Molecule B24 returned a dissociation constant (Kd) of 11.3 ± 1.9 nM.

B25 gave a Kd of 51 ± 10 nM.

Consider B26, for which the equilibrium dissociation constant (Kd) worked out at 12.5 ± 3.7 nM.

B27 gave a Kd of 65.5 ± 15 nM.

In turn, B28 returned an equilibrium dissociation constant (Kd) of 17.4 ± 2.8 nM.

For B29, the equilibrium dissociation constant (Kd) stood at 42 ± 7 nM.

Molecule B30 registered a Kd of 57.5 ± 16 nM.

B31 showed a Kd of 38.6 ± 3.2 nM.

In turn, B32 gave a dissociation constant Kd of 44.5 ± 15 nM.

Regarding B33, binding was put at a Kd of 13 ± 4.5 nM.

In turn, B34 yielded a Kd of 9.4 ± 2 nM.

For the molecule B35, the equilibrium dissociation constant (Kd) is approximately 60 nM.

With B36, the equilibrium dissociation constant (Kd) was 47 ± 13.5 nM.

B37 gave a Kd of 16.1 ± 2.1 nM.

These data come from PMC10786891, “Massively parallel profiling of RNA-targeting CRISPR-Cas13d”.
